The assay deals with T1, PFN1 (Homo sapiens (assumed; ALS risk gene …, UniProt P07737).
T1 construct: PFN1, the protein encoded by the ALS risk gene PFN1; Surmised: endogenous protein in the lysate of a human cell line, as in the YCharOS workflow; also called profilin-1 (protein encoded by the ALS risk gene PFN1)
The experiment in a line: immunoprecipitation, detected by immunoblot; the antibody was used to immunoprecipitate its target; counted as successful when the target protein was specifically enriched relative to the starting material, confirmed by immunoblot of the immunoprecipitated protein. Conditions: one partner purified. For orientation: A western blot detects proteins with antibodies after separation by electrophoresis.

T1 sequence (P07737 whole entry): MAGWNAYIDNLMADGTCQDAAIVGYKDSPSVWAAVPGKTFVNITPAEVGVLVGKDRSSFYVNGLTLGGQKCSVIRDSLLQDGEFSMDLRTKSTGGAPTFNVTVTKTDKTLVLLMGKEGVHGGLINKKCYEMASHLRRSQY

B1: scFv against PFN1 (recombinant single-chain variable fragment antibody generated by the Structural Genomics Consortium) (scFv, V domains shown)
VH: EVQLLESGGGLVQPGGSLRLSCAASGFTFYSSYMYWVRQAPGKGLEWVSSISGYGGYTYYADSVKGRFTISRDNSKNTLYLQMNSLRAEDTAVYYCARWDGYMDYWGQGTLVTVSS
VL: DIQMTQSPSSLSASVGDRVTITCRASQSISSYLNWYQQKPGKAPKLLIYAASSLQSGVPSRFSGSGSGTDFTLTISSLQPEDFATYYCQQYWDYGLPTFGQGTKLEIK
notes: selected by phage display against recombinant biotinylated antigen; plasmid deposited at Addgene (id not given); also called the scFv against PFN1; custom scFv antibody
With B1, the binding result is “binds”.

The record behind these values is paper doi:10.1101/2025.09.14.676084, “A validated antibody toolbox for ALS research” (bioRxiv, 2025).
